What was measured:
Assay in all cases: cell-based or functional assay
[1] = molecular target: HIV-1 Env of pseudovirus MGRM-AG-011 (clade CRF_AG) (HIV-1)
[2] = molecular target: HIV-1 Env of isolate NL43, clade B, on pseudovirus (HIV-1)
[3] = molecular target: HIV-1 APV-17 envelope glycoprotein (Env) on pseudovirus (HIV-1)
[4] = molecular target: HIV-1 Env of pseudovirus MGRM-F1-006 (HIV-1)
[5] = molecular target: HIV-1 envelope glycoprotein (Env) of isolate MGRM-A-003, clade A (HIV-1)
[6] = molecular target: HIV-1 92RW020 Env (pseudovirus, clade A) (HIV-1)
[7] = molecular target: HIV-1 Env of isolate MGRM-G-028 (HIV-1)
[8] = molecular target: HIV-1 Env of isolate 98IN022 (clade C) (HIV-1 isolate 98IN022)
[9] = molecular target: HIV-1 92RW020 envelope glycoprotein (Env) on pseudovirus (HIV-1)
[10] = molecular target: HIV-1 Env of pseudovirus MGRM-G-006 (clade G) (HIV-1)
[11] = molecular target: HIV-1 Env of isolate 92RW024 (clade A pseudovirus) (HIV-1)
[12] = molecular target: HIV-1 Env of pseudovirus MGRM-Chronic-B-017 (HIV-1)
[13] = molecular target: HIV-1 Env of isolate MGRM-D-013 (clade D pseudovirus) (HIV-1)
[14] = molecular target: HIV-1 envelope glycoprotein (Env) of isolate 94UG103, clade A (HIV-1)
[15] = molecular target: HIV-1 Env of pseudovirus MGRM-AG-005 (clade CRF_AG) (HIV-1)
[16] = molecular target: HIV-1 Env of isolate MGRM-F1-004 (pseudovirus) (HIV-1)
[17] = molecular target: HIV-1 Env of isolate 98CN006 (pseudovirus) (HIV-1)
[18] = molecular target: HIV-1 Env of isolate QH0692.42 (subtype B pseudovirus) (HIV-1)
[19] = molecular target: HIV-1 Env of isolate 92UG114 (pseudovirus) (HIV-1)
[20] = molecular target: HIV-1 Env of isolate MGRM-Chronic-B-012 (subtype B pseudovirus) (HIV-1)
[21] = molecular target: HIV-1 Env of isolate 98IN022 (HIV-1)
[22] = molecular target: HIV-1 Env of isolate MGRM-AE-004 (HIV-1)
[23] = molecular target: HIV-1 Env of isolate MGRM-F1-018 (HIV-1)
[24] = molecular target: HIV-1 Env of isolate MGRM-D-018 (pseudovirus) (HIV-1)
[25] = molecular target: HIV-1 JRCSF Env (pseudovirus, clade B) (HIV-1) (UniProt P20871)
[26] = molecular target: HIV-1 APV13 Env (pseudovirus) (HIV-1)
[27] = molecular target: HIV-1 92UG024 envelope glycoprotein (Env) on pseudovirus (HIV-1)
[28] = molecular target: HIV-1 Env of isolate VLGCA1 (subtype A) (HIV-1)
[29] = molecular target: aMLV envelope (negative control pseudovirus)
[30] = molecular target: HIV-1 Env of isolate 92TH021 (subtype AE) (HIV-1)
[31] = molecular target: HIV-1 Env of isolate MGRM-Chronic-B-024 (subtype B) (HIV-1)
[32] = molecular target: HIV-1 Env of isolate MGRM-AE-008 (subtype AE) (HIV-1)
[33] = molecular target: HIV-1 Env of isolate MGRM-A-003 (HIV-1)
[34] = molecular target: HIV-1 Env of isolate 98CN006 (HIV-1)
[35] = molecular target: HIV-1 Env of isolate MGRM-A-011 (subtype A) (HIV-1)
[36] = molecular target: HIV-1 Env of isolate MGRM-A-010 (subtype A) (HIV-1)
[37] = molecular target: HIV-1 Env of isolate MGRM-A-006 (HIV-1)
[38] = molecular target: HIV-1 Env of isolate MG RM-D-002 (HIV-1)

Sequence of 5345_I01 (PGT-137) (antibody) (VH): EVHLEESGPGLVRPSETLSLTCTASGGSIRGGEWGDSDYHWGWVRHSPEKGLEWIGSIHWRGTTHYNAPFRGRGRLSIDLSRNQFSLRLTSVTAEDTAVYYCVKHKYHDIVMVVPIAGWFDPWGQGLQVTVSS
Sequence of 5345_I01 (PGT-137) (antibody) (VL): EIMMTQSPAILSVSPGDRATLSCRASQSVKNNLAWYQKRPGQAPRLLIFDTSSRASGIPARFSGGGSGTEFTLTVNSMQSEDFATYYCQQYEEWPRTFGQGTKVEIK
Sequence of 4993_K13 (PGT-141) (antibody) (VH): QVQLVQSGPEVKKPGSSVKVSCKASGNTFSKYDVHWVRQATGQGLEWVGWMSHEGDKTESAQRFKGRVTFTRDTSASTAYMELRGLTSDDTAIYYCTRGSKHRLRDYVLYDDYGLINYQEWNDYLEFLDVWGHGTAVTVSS
Sequence of 4993_K13 (PGT-141) (antibody) (VL): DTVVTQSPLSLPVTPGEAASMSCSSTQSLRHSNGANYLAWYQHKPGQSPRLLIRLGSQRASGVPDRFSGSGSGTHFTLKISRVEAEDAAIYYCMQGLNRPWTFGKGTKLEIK
Sequence of 4980_N08 (PGT-143) (antibody) (VH): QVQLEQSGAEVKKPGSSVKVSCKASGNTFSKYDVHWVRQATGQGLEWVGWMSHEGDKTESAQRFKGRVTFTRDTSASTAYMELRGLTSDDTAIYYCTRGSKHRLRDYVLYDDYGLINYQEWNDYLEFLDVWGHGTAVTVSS
Sequence of 4980_N08 (PGT-143) (antibody) (VL): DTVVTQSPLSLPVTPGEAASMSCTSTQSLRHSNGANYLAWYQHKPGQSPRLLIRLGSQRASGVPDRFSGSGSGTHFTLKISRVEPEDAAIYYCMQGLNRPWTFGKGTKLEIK
Sequence of 4995_E20 (PGT-142) (antibody) (VH): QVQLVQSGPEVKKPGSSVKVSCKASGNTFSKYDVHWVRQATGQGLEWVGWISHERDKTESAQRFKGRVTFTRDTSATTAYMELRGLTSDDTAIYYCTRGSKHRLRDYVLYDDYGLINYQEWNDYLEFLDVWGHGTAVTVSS
Sequence of 4970_K22 (PGT-144) (antibody) (VH): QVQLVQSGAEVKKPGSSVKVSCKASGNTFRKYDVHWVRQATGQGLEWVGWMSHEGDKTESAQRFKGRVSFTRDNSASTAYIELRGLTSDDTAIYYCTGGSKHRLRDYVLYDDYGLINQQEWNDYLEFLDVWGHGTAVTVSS
Sequence of 4970_K22 (PGT-144) (antibody) (VL): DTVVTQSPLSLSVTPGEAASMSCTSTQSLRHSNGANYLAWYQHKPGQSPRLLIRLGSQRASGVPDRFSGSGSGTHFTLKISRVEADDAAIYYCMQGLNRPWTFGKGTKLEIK

Row | Substance | IC50 neutralization [6] [mg/L] | IC50 (µg/mL), pseudovirus neutralization [7] [µg/mL] | IC50, pseudovirus neutralization [16] [mg/L] | IC50, pseudovirus neutralization [17] [mg/L] | IC50 (µg/mL), pseudovirus neutralization [18] [µg/mL] | IC50, pseudovirus neutralization [19] [mg/L] | IC50 (µg/mL), pseudovirus neutralization [20] [µg/mL] | neutralization IC50 [21] [mg/L] | IC50 [22] [mg/L] | IC50 (µg/mL), pseudovirus neutralization [23] [µg/mL] | IC50, pseudovirus neutralization [24] [mg/L] | IC50 (µg/mL), pseudovirus neutralization [28] [µg/mL] | IC50 (µg/mL), pseudovirus neutralization [29] [µg/mL] | IC50 (µg/mL), pseudovirus neutralization [30] [µg/mL] | other results
1 | 1496_C09 (PG9) (TCN-109) (antibody) | 0.161 | 0.891 |  |  |  |  |  |  |  |  |  |  |  |  | IC50 [1]: 0.01 mg/L; IC50 (µg/ml), pseudovirus neutralization [2]: 0.32 µg/mL; IC50, pseudovirus neutralization [3]: 26.4 mg/L; IC50 (µg/ml), pseudovirus neutralization [4]: 1.45 µg/mL; IC50 (µg/ml), pseudovirus neutralization [5]: 0.65 µg/mL; IC50 (µg/ml), pseudovirus neutralization [8]: 0.006 µg/mL; IC50, pseudovirus neutralization [9]: 0.0637 mg/L; IC50 [10]: 0.51 mg/L; IC50 (µg/ml), pseudovirus neutralization [11]: 0.18 µg/mL; IC50 (µg/ml), pseudovirus neutralization [12]: 0.32 µg/mL; IC50 (µg/ml), pseudovirus neutralization [13]: 0.06 µg/mL; IC50 (µg/ml), pseudovirus neutralization [14]: 0.24 µg/mL; IC50 [15]: 29.7 mg/L
2 | 4838_L06 (PGT-121) (antibody) |  |  | 1.67 | 0.01 | 0.823 | 0.004 | 0.036 | 0.007 | > 50 | 0.04 | 0.005 |  |  |  | 
3 | 4858_P08 (PGT-123) (antibody) | 0.0038 |  | 1.78 | 0.008 | 0.158 | 0.005 | 0.227 | 0.011 | > 50 | 0.054 | 0.007 |  |  |  | IC50 neutralization [25]: 0.0423 mg/L; neutralization IC50 [9]: 0.0038 mg/L; neutralization IC80 [9]: 0.0106 mg/L; neutralization IC90 [9]: 0.0194 mg/L; neutralization IC95 [9]: 0.0343 mg/L; neutralization IC50 (pseudovirus) [26]: 0.222 mg/L; neutralization IC50 [27]: > 10 mg/L; neutralization IC80 [27]: > 10 mg/L; neutralization IC90 [27]: > 10 mg/L; neutralization IC95 [27]: > 10 mg/L
4 | 4877_D15 (PGT-122) (antibody) | 0.0072 |  | 1.29 | 0.021 | 0.493 | 0.011 | 0.066 | 0.032 | > 50 | 0.563 | 0.007 |  |  |  | IC50 neutralization [25]: 0.0727 mg/L; neutralization IC50 (pseudovirus) [26]: 0.992 mg/L
5 | 4970_K22 (PGT-144) (antibody) |  | > 50 |  |  |  |  |  |  |  |  |  | > 50 | > 50 | 0.052 | IC50 (neutralizing activity, pseudovirus) [29]: > 10 mg/L; IC50 (neutralizing activity, pseudovirus) [26]: > 10 mg/L
6 | 4980_N08 (PGT-143) (antibody) |  | 43 |  |  |  |  |  |  |  |  |  | 17.4 | > 50 | 0.003 | IC50 (neutralizing activity, pseudovirus) [29]: > 10 mg/L; IC50 (neutralizing activity, pseudovirus) [26]: > 10 mg/L
7 | 4993_K13 (PGT-141) (antibody) |  | 24.9 |  |  |  |  |  |  |  |  |  | 2.07 | > 50 | 0.001 | IC50 (neutralizing activity, pseudovirus) [29]: > 10 mg/L; IC50 (neutralizing activity, pseudovirus) [26]: > 10 mg/L
8 | 4995_E20 (PGT-142) (antibody) |  | 30.3 |  |  |  |  |  |  |  |  |  | 2.75 | > 50 | 0.002 | IC50 (neutralizing activity, pseudovirus) [29]: > 10 mg/L; IC50 (neutralizing activity, pseudovirus) [26]: > 10 mg/L
9 | 5114_A19 (PGT-128) (antibody) |  |  |  |  |  |  |  |  |  |  |  | 0.838 |  | 0.01 | IC50 neutralization [31]: > 50 mg/L; IC50 (µg/mL), pseudovirus neutralization [32]: > 50 µg/mL; IC50 [33]: > 50 mg/L; IC50 (µg/mL), pseudovirus neutralization [34]: 0.015 µg/mL; IC50 (µg/mL), pseudovirus neutralization [35]: > 50 µg/mL; IC50 (µg/mL), pseudovirus neutralization [36]: 0.005 µg/mL; IC50 [37]: > 50 mg/L; IC50 (µg/mL), pseudovirus neutralization [38]: 0.011 µg/mL
10 | 5123_A06 (PGT-125) (antibody) | 0.0028 |  | > 50 | 0.201 | 0.048 | 0.349 | 0.036 | 22.1 | > 50 | > 50 | > 50 |  |  |  | IC50 neutralization [25]: 0.006 mg/L; neutralization IC50 (pseudovirus) [26]: 0.0128 mg/L
11 | 5136_H01 (PGT-131) (antibody) |  |  |  |  |  |  |  |  |  |  |  | > 50 |  | 0.014 | IC50 neutralization [31]: > 50 mg/L; IC50 (µg/mL), pseudovirus neutralization [32]: > 50 µg/mL; IC50 [33]: > 50 mg/L; IC50 (µg/mL), pseudovirus neutralization [34]: 35.3 µg/mL; IC50 (µg/mL), pseudovirus neutralization [35]: > 50 µg/mL; IC50 (µg/mL), pseudovirus neutralization [36]: 0.01 µg/mL; IC50 [37]: > 50 mg/L; IC50 (µg/mL), pseudovirus neutralization [38]: 11.2 µg/mL
12 | 5141_B17 (PGT-126) (antibody) | 0.0046 |  | 0.063 | 0.046 | 0.048 | 0.038 | 0.027 | 0.279 | > 50 | 14.9 | 0.009 |  |  |  | IC50 neutralization [25]: 0.0061 mg/L; IC50, pseudovirus neutralization [9]: 0.0046 mg/L; IC80 (pseudovirus neutralization) [9]: 0.0168 mg/L; IC90 (pseudovirus neutralization) [9]: 0.0359 mg/L; IC95 (pseudovirus neutralization) [9]: 0.0728 mg/L; neutralization IC50 (pseudovirus) [26]: 0.012 mg/L; IC50, pseudovirus neutralization [27]: > 10 mg/L; IC80 (pseudovirus neutralization) [27]: > 10 mg/L; IC90 (pseudovirus neutralization) [27]: > 10 mg/L; IC95 (pseudovirus neutralization) [27]: > 10 mg/L
13 | 5145_B14 (PGT-127) (antibody) |  |  | 0.068 | 0.067 | 0.129 | 7.09 | 0.075 | 19.2 | > 50 | 3.59 | 0.021 |  |  |  | 
14 | 5147_N06 (PGT-130) (antibody) | 0.014 |  |  |  |  |  |  |  |  |  |  | > 50 |  | 0.009 | IC50 neutralization [25]: 0.0089 mg/L; IC50 neutralization [31]: 5.78 mg/L; IC50 (µg/mL), pseudovirus neutralization [32]: > 50 µg/mL; IC50 [33]: > 50 mg/L; IC50 (µg/mL), pseudovirus neutralization [34]: 0.258 µg/mL; IC50 (µg/mL), pseudovirus neutralization [35]: > 50 µg/mL; IC50 (µg/mL), pseudovirus neutralization [36]: 0.005 µg/mL; IC50 [37]: > 50 mg/L; IC50 (µg/mL), pseudovirus neutralization [38]: 0.869 µg/mL; Neutralization by PGT-130, IC50 [26]: 0.0345 mg/L; Neutralization by PGT-130, IC80 [26]: 0.573 mg/L; Neutralization by PGT-130, IC90 [26]: 2.88 mg/L; Neutralization by PGT-130, IC95 [26]: > 10 mg/L; neutralization IC50 (pseudovirus) [26]: 0.0345 mg/L
15 | 5345_I01 (PGT-137) (antibody) |  |  |  |  |  |  |  |  |  |  |  | > 50 |  | > 50 | IC50 neutralization [31]: > 50 mg/L; IC50 (µg/mL), pseudovirus neutralization [32]: > 50 µg/mL; IC50 [33]: > 50 mg/L; IC50 (µg/mL), pseudovirus neutralization [34]: 1.22 µg/mL; IC50 (µg/mL), pseudovirus neutralization [35]: > 50 µg/mL; IC50 (µg/mL), pseudovirus neutralization [36]: > 50 µg/mL; IC50 [37]: > 50 mg/L; IC50 (µg/mL), pseudovirus neutralization [38]: > 50 µg/mL
16 | PGV04 (antibody) |  | 0.352 |  |  |  |  |  |  |  |  |  |  | > 50 |  | IC50 [34]: 1.32 mg/L
17 | VRC01 (antibody) |  | 0.164 |  |  |  |  |  |  |  |  |  | 0.163 | > 50 | 0.616 | IC50 [23]: 0.032 mg/L
